Protein stability index data for 95 variants are collected here from the supplement of paper PMC10567573.

The labels stand for the following.
B1: FBXO3 (parent)
chain: DEEERRRRVFDVPIRRRRCSRLF
B2: MFF (parent)
chain: MAEISRIQYEMEYTEGISQRMRVP
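Also: lentivirally expressed fusions sorted by FACS into six bins by GFP to DsRed ratio, PSI derived from sequencing read proportions per bin multiplied by bin number.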

In the first data set the parent is B1. As to the kind of experiment: protein stability index of a GFP-peptide fusion (GPS, HEK-293T) (PSI 1-6); higher = more stable. The settings on record: c terminus: native.
For DEEERRRRVFDVPIRRRRCSRQF, the protein stability index amounted to 1.55. As to DEEERRRRVFDVPIRRRRCSRGF, the protein stability index was 3.06. In the case of DEEERRRRVFDVPIRRRRCSRDF, the protein stability index worked out at 4.94. Regarding DEEERRRRVFDVPIRRRRCSRVF, the protein stability index worked out at 2.12. Turning to DEEERRRRVFDVPIRRRRCSRPF, the protein stability index stood at 3.85. Consider DEEERRRRVFDVPIRRRRCSRFF, for which the protein stability index stood at 4.44. Turning to DEEERRRRVFDVPIRRRRCSRMF, the protein stability index stood at 2.28. Take DEEERRRRVFDVPIRRRRCSREF: the protein stability index was 4.92. As to DEEERRRRVFDVPIRRRRCSRAF, the protein stability index came out at 3.3. On the same count and under the same terms, to DEEERRRRVFDVPIRRRRCSRNF belongs 2.09. On to DEEERRRRVFDVPIRRRRCSRSF, for which the protein stability index was 2.17. Turning to DEEERRRRVFDVPIRRRRCSRYF, the protein stability index stood at 2.63. On the same count and under the same terms, the value for DEEERRRRVFDVPIRRRRCSRRF was 3.97; that for DEEERRRRVFDVPIRRRRCSRCF was 2.71.

On to DEEERRRRVFDVPIRRRRCSRKF, for which the protein stability index was 4.67.

Take DEEERRRRVFDVPIRRRRCSRHF: the protein stability index was determined as 2.94. On the same count and under the same terms, to DEEERRRRVFDVPIRRRRCSRIF belongs 2.82.

As to DEEERRRRVFDVPIRRRRCSRWF, the protein stability index turned out to be 3.03. For the variant DEEERRRRVFDVPIRRRRCSRTF, the protein stability index was 2.46. In the case of DEEERRRRVFDVPIRRRRCSRLD, the protein stability index worked out at 2.71.

DEEERRRRVFDVPIRRRRCSRLV: the protein stability index amounted to 3.28. In the case of DEEERRRRVFDVPIRRRRCSRLK, the protein stability index was 4.1. For the variant DEEERRRRVFDVPIRRRRCSRLA, the protein stability index is 1.35.

Regarding DEEERRRRVFDVPIRRRRCSRLP, the protein stability index came to 2.6. For the variant DEEERRRRVFDVPIRRRRCSRLQ, the protein stability index was determined as 2.98. As to DEEERRRRVFDVPIRRRRCSRLT, the protein stability index came out at 2.4. On to DEEERRRRVFDVPIRRRRCSRLL, for which the protein stability index turned out to be 4.08. As for DEEERRRRVFDVPIRRRRCSRLI, the protein stability index was 1.85. Turning to DEEERRRRVFDVPIRRRRCSRLW, the protein stability index is 3.56. Still for that read-out and setting: the value for DEEERRRRVFDVPIRRRRCSRLC was 2.65; that for DEEERRRRVFDVPIRRRRCSRLN was 2.48; that for DEEERRRRVFDVPIRRRRCSRLY was 3.25.

In the case of DEEERRRRVFDVPIRRRRCSRLG, the protein stability index amounted to 2.86.

For DEEERRRRVFDVPIRRRRCSRLM, the protein stability index stood at 2.45. With DEEERRRRVFDVPIRRRRCSRLR, the protein stability index was found to be 3.91. Consider DEEERRRRVFDVPIRRRRCSRLS, for which the protein stability index was determined as 1.03. The same measure, in the same setting: the value for DEEERRRRVFDVPIRRRRCSRLH was 2.77; that for DEEERRRRVFDVPIRRRRCYRLF was 2.22; that for DEEERRRRVFDVPIRRRRCWRLF was 2.47.

Turning to DEEERRRRVFDVPIRRRRCVRLF, the protein stability index is 2.06.

Turning to DEEERRRRVFDVPIRRRRCSYLF, the protein stability index was found to be 3.08. As to DEEERRRRVFDVPIRRRRCSHLF, the protein stability index is 3.59. For the variant DEEERRRRVFDVPIRRRRCSGLF, the protein stability index was found to be 2.36.

As for DEEERRRRVFDVPIRRRRCSWLF, the protein stability index was 2.53. Turning to DEEERRRRVFDVPIRRRRCSCLF, the protein stability index came out at 4.79.

In the case of DEEERRRRVFDVPIRRRRCSDLF, the protein stability index turned out to be 3.91. Turning to DEEERRRRVFDVPIRRRRCSNLF, the protein stability index came out at 3.99. Same read-out and setting: to DEEERRRRVFDVPIRRRRCSILF belongs 2.93; to DEEERRRRVFDVPIRRRRCSELF, 3.46; to DEEERRRRVFDVPIRRRRCSQLF, 3.62. As for DEEERRRRVFDVPIRRRRCSALF, the protein stability index is 4.48. Consider DEEERRRRVFDVPIRRRRCSVLF, for which the protein stability index is 2.98. For DEEERRRRVFDVPIRRRRCSFLF, the protein stability index was 3.04. As to DEEERRRRVFDVPIRRRRCSSLF, the protein stability index was found to be 4.35. Regarding DEEERRRRVFDVPIRRRRCSLLF, the protein stability index amounted to 2.6. On the same count and under the same terms, to DEEERRRRVFDVPIRRRRCSKLF belongs 3.27; to DEEERRRRVFDVPIRRRRCSMLF, 2.87; to DEEERRRRVFDVPIRRRRCSPLF, 2.72.

For DEEERRRRVFDVPIRRRRCSTLF, the protein stability index came to 3.85.

The variants in the next data set derive from B2. The data set is described as above. The note with it: c terminus: a fixed tail appended.
MAEESRIQYEMEYTEGISQRMRVP: the protein stability index is 4.08.

Take MAEMSRIQYEMEYTEGISQRMRVP: the protein stability index was determined as 3.56.

For MAERSRIQYEMEYTEGISQRMRVP, the protein stability index was determined as 3.31. The same measure, in the same setting: to MAEWSRIQYEMEYTEGISQRMRVP belongs 2.89; to MAEASRIQYEMEYTEGISQRMRVP, 3.38; to MAEDSRIQYEMEYTEGISQRMRVP, 3.41. MAEYSRIQYEMEYTEGISQRMRVP: the protein stability index stood at 2.8.

Take MAEGSRIQYEMEYTEGISQRMRVP: the protein stability index came out at 3.4. The same measure, in the same setting: the value for MAEQSRIQYEMEYTEGISQRMRVP was 3.8; that for MAELSRIQYEMEYTEGISQRMRVP was 2.99. MAENSRIQYEMEYTEGISQRMRVP: the protein stability index was found to be 3.71. In the case of MAETSRIQYEMEYTEGISQRMRVP, the protein stability index came to 3.86. On the same count and under the same terms, to MAEFSRIQYEMEYTEGISQRMRVP belongs 2.56; to MAEHSRIQYEMEYTEGISQRMRVP, 3.34; to MAEPSRIQYEMEYTEGISQRMRVP, 3.55. Regarding MAECSRIQYEMEYTEGISQRMRVP, the protein stability index stood at 3.6. As for MAEKSRIQYEMEYTEGISQRMRVP, the protein stability index turned out to be 3.58. Same read-out and setting: the value for MAEVSRIQYEMEYTEGISQRMRVP was 2.74; that for MAESSRIQYEMEYTEGISQRMRVP was 3.42. On to MAFISRIQYEMEYTEGISQRMRVP, for which the protein stability index worked out at 1.76.

For MAVISRIQYEMEYTEGISQRMRVP, the protein stability index was 1.98. As for MAGISRIQYEMEYTEGISQRMRVP, the protein stability index is 2.96. Regarding MAQISRIQYEMEYTEGISQRMRVP, the protein stability index is 2.07. As to MAKISRIQYEMEYTEGISQRMRVP, the protein stability index stood at 2.3. In the case of MAYISRIQYEMEYTEGISQRMRVP, the protein stability index amounted to 2.01. Turning to MATISRIQYEMEYTEGISQRMRVP, the protein stability index worked out at 2.07. For the variant MAHISRIQYEMEYTEGISQRMRVP, the protein stability index came out at 2.93.

With MAPISRIQYEMEYTEGISQRMRVP, the protein stability index stood at 3.31. MACISRIQYEMEYTEGISQRMRVP: the protein stability index stood at 2.45. MANISRIQYEMEYTEGISQRMRVP: the protein stability index is 2.41. Take MAIISRIQYEMEYTEGISQRMRVP: the protein stability index was determined as 1.7. In the case of MAWISRIQYEMEYTEGISQRMRVP, the protein stability index stood at 1.57. Consider MAMISRIQYEMEYTEGISQRMRVP, for which the protein stability index was determined as 1.91. Regarding MADISRIQYEMEYTEGISQRMRVP, the protein stability index stood at 2.58.

MALISRIQYEMEYTEGISQRMRVP: the protein stability index amounted to 1.77. Take MASISRIQYEMEYTEGISQRMRVP: the protein stability index turned out to be 1.85.
